Molecular target: SARS-CoV nucleocapsid protein C-terminal domain (residues 248–365) (SARS-CoV TW1 strain)
Test: NMR structure

“SARS-CoV nucleocapsid protein C-terminal domain (residues 248–365) (domain or fragment)” showed a stoichiometry N of 2.

Reference: article PMC7094413
